Measurements: patent publication US20240294650A1 (Alector, published 2024)
Where a chain is given by its changes, count along the chain named.

T1: mouse MerTK overexpressed on CHO cells (mouse, UniProt Q60805 19-994)
T1 construct: whole, on cells; also called CHO-muMerTK OE
T1 sequence (looked up): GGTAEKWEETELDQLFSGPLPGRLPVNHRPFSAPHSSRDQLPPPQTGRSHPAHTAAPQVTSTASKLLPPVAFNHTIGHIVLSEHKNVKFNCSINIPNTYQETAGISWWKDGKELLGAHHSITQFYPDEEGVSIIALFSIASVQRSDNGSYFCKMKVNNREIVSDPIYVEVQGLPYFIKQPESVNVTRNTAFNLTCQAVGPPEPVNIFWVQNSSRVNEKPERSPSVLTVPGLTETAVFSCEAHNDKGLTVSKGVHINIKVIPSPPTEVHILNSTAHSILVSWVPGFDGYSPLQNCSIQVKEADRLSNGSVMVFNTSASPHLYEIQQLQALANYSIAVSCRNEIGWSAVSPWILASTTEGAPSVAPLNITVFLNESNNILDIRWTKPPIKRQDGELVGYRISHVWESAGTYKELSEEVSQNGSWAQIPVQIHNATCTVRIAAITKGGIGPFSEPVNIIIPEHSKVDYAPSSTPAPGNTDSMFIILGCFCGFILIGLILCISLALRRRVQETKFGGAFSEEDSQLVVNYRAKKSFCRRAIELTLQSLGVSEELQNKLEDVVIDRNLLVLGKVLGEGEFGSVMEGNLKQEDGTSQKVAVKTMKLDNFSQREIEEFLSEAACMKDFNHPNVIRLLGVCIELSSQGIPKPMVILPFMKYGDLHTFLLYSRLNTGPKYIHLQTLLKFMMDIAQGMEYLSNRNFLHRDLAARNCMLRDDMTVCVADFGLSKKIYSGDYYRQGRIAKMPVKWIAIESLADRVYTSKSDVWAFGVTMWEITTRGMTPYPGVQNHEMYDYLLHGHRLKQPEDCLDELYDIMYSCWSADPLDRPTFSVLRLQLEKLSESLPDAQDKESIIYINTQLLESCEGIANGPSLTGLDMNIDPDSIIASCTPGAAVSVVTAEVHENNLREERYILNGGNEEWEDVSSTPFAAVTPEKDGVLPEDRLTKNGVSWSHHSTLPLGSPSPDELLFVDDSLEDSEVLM

T2: endogenous murine MerTK on bone marrow-derived macrophages (mouse, UniProt Q60805 19-994)
T2 construct: whole, on cells; MFI on MerTK KO BMDM subtracted; also called BMDM WT-KO
T2 sequence (looked up): T1 sequence (looked up)

B1: MTK-227 (antibody, human IgG1, V domains shown)
VH: EVKLVESGGGLVQPGGSLSLSCAASGFTFTDNYMTWVRQPPGKALEWLGFSRNKANGYTTEYSASVKGRFTISRDSSQSILYLQMNALRAEDSGTYYCARFPPHYYAGGYFDVWGTGTTVTVSS
VL: DIQMTQSPASLSASVGETVTITCRASENIYSYLAWYQQKQGKSPQLLVYNAKTLAEGVPSRFSGSGSGTQFSLKINSLQPADFGSYYCQHYYRTPPTFGGGTKLEIK
B2: MTK-201 (antibody, human IgG1, V domains shown)
VH: QVQLRQSGPGLVQPSQSLSITCTVSGFSLSNYGLHWVRQSPGKGLEWLGVIWSGGITDYNAAFISRLSIIKDNSRSQVFFKMNSLQADDTAIYYCARKGHDPYAMDFWGQGTSVTVSS
VL: QIVLTQSPPIMSAFLGERVTMTCTASSSVSSSYLHWYRQMPGSSPKLWIYDTSNLASGVPARFSGSGSGTSYSLTISSMEAEDAATYYCHQYHHSPYTFGGGTKLEIK
B3: MTK-228 (antibody, human IgG1, V domains shown)
VH: QDQLQQSGPELVKPGASVKISCKASGYSFTSYYIHWVKQRPGQGLEWVGWIFPGNGNTKYNERFKGKATLTADTSSSTAYMQLSSLTSEDSAVYYCARLGLIYALDYWGQGTSVTVSS
VL: DAVMTQTPLSLPVSLGDQASISCRSSQSLENSNGNTYLHWYLQKPGQSPQLLIYRVSNRFSGVLDRFSGSGSGTDFTLKISRVEAEDLGVYFCLQVTHVPFTFGSGTKLEIK
B4: MTK-218 (antibody, human IgG1, V domains shown)
VH: B3 VH with D2V, A16T, E46D, V48I, G56R, K59Q, R63K
VL: B3 VL with N35H, L64Q
B5: MTK-226 (antibody, human IgG1, V domains shown)
VH: B3 VH with D2V, V48I, R63N, K65R
VL: B3 VL with N31S, K79Q
B6: MTK-223 (antibody, human IgG1, V domains shown)
VH: DVQLQESGPGLVKPSQSLSLTCSVTGYSITSGYYWNWIRQFPGNKLEWMGYISYDGTNNYNPSLKNRISITRDTSENQFFLKLNSVTTEDTATYFCVRGAGYWGQGTTLTVSS
VL: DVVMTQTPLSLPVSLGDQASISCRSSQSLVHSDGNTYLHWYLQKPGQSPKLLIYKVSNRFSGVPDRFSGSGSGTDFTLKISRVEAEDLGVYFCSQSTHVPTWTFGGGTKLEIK
B7: MTK-229 (antibody, human IgG1, V domains shown)
VH: QVQLQQSGPELVKPGASVKISCKASGYEFSRSWMNWVKQRPGKGLEWIGRIYPGDGDTNYKGKLKGQATLTADKSSSTAYMQLSSLTFEDSAVYFCARGGGYYYDSRYEGFVYWGQGTVVTVSA
VL: QIVLTQSPAIMSASPGEEVTMTCSASSSVSYMHWYQQKSGTSPKRWIYDTSKLASGVSGRFSGSGSGTSYSLTISSMEAEDAATYYCQQWSSNPPITFGAGTKLELK
B8: MTK-211 (antibody, human IgG1, V domains shown)
VH: QVQLQQSGAELMKPGASVKLSCKATGYTFTGYWIEWVKQRPGHGLEWIGEILPGSGGSNYNEKFKGKATFTADTSSNTAYIQLSSLTTEDSAIYCCARGEPSYFSDAGFAYWGQGTLVTVSA
VL: QIVLTQSPAVMSASPGEKVTMTCSASSSITYMHWYQQKPGTSPKRWIYDTSKLASGVPARFSGSGSGTSYFLTISSMEAEDVATYYCHQRSTYPYTFGGGTKLEIM
B9: MTK-213 (antibody, human IgG1, V domains shown)
VH: QVQLQQPGAELVKPGASVKMSCKASGYTFTSYWITWVKQRPGQGHEWIGEIYPGIGSTNYNEKFKSKATLTVDTSSRTAYMQLSSLTSEDSAVYFCARGAYTKYYFDYWGQGTTLTVSS
VL: DIVMTQSHKFMSTSVGDRVSITCKASQDVGDAVAWYQQKPGQTPKLLIYWASTRHTGVPDRFTGSGSGTDFTLTISNVQSEDLADYFCQQYSSYLMYTFGGGTKLEIK
B10: MTK-220 (antibody, V domains shown)
VH: EVQLVESGGGLVKPGGSLKLSCAASGFTFSDYGMHWVRQAPEKGLEWVAFISGGSGTIYYEDTVKGRFTISRDNAKNTLFLQMTSLRSEDTAMYYCTRGGNYFDYWGQGTTLTVSS
VL: NIMLTQSPSSLAVSAGEKVTMTCKSSQSVLYSSNQKNYLAWYQQKPGQSPKLLIYWASTRESGVPDRFTGSGSGTDFTLTISNVQAEDLAVYYCHQYFSSWTFGGGTKLEIK
B11: MTK-219 (antibody, human IgG1, V domains shown)
VH: QVQLQQSGADLMKPGASVKLSCKATGNTFTGYWIEWVKQRPGHGLEWIGEILTGSGSTNYNERFKGKATFTADTSSNTAYMQLSSLTTEDSAIYYCAGSYFTNSWFPYWGQGSLVTVSA
VL: DIVLTQSPASLAVSLGQRATISCRASESVDSYGNSFMHWYQQKPGQPPKLLIYRAYTLESGIPARFSGSGSRTDFTLTINPVEADDVATYYCQQSNEDPRTFGGGTKLEIK
B12: MTK-210 (antibody, human IgG1, V domains shown)
VH: QVQLQQSGPELVKPGASVKISCKASDYEFSRSWMNWVKQRPGKGLEWIGRIYPGDGDTNYNGKFKGKATLTADKSSNTAYMQLNSLTSEDSAVYFCARKGGYYYSISNYFDYWGQGTTLTVSS
VL: QIVLTQSPAIMSASPGVKVTMTCSASSSVSYMHWYQQKPGSSPRLLIYDTSNLASGVPVRFSGSGSGTSYSLTISRMEAEDAATYYCQQWSSYPPYTFGGGTKLEIK
B13: MTK-208 (antibody, human IgG1, V domains shown)
VH: QVQLQQPGAELVVPGASVRLSCKASGYTFINYWMHWVKQRPGQGLEWIGEIDPSDSYANYNQKFKDKSTLSLDKSSSTAYMQLSSLTSEDSAVYYCARCDYYGRLDYWGQGTTLTVSS
VL: QVVLTQSPAIMSASPGEKVTITCSASSSVSYMLWFQQKPGTSPKLWIYSTSNLASGVPARFSGSGSGTSYSLTISRLEAEDAATYYCQQRSSYPPITFGAGTKLELK
B14: MTK-221 (antibody, human IgG1, V domains shown)
VH: QVTLKESGPGMLQSSQTLSLTCSFSGFSLSTSGMGVSWIRQPSGKGLEWLAHIYWDDDKRYNTSLQSRLTISKDTSRNQVFLKITSVDTADTATYFCGRLGAYSAFPYYFDYWGQGTTLTVSS
VL: DIQMTQSPSSLSASLGGKVTITCKASQDIHKHIAWYQHKPGKGPRLLIHYTSTLQPGIPSRFSGSGSGRDYSFSISNLEPEDLATYYCLQYDNLWTFGGGTKLEIK
B15: MTK-206 (antibody, human IgG1, V domains shown)
VH: QVQLQQSGAELARPGASVKMSCKASGYTFTSYTMHWVKQRPGQGLEWIGYINPSSGYIKNSQKFKDKATLTADKSSSTAYMQLSSLTSEDSAVYYCARTVYGYYGSSPDYWGQGTTLTVSS
VL: DIQMTQSPSSLSASLGERVSLTCRASQDIGSNLNWLQQEPDGTIKRLIYATSSLESGVPKRFSGSRSGSDYSLTISSLESEDFVDYYCLQYDSSPWTFGGGTKLEIK
B16: MTK-215 (antibody, human IgG1, V domains shown)
VH: EVQLVESGGGLVKPGGSLKLSCAASGFIFSDYGMHWVRQAPEKGLEWVAYISSGSSTIYYGDTVKGRFTISRDNAKNTLFLQMTSLRSEDTAMYYCAKGGRYGAMDYWGHGTSVTVSS
VL: DIVLTQSPATLSVTPGDSVSLSCRASQSISNNLHWYQQKSHESPRLLIKNPSQSISGIPSRFGARGSGTDFTLIINSVETEDLGVYFCQQSNSWPFTFGSGTKLEIK
B17: MTK-214 (antibody, human IgG1, V domains shown)
VH: QVQLQQPGAELVKPGASVKVSCKASGYTFTNYWMHWMKQRPGQGLEWIGRIHPFDSDTNYNEKFTDKATLTVDKSSSTAYMQLSSLTSEDSAVYYCAIGTLIYWGQGTTLTASS
VL: DILLTQSPATLSVTPGETVSLSCRASQSIYKKLHWFQQRSHRSPRLLIKFASDSISGIPSRFTGSGSGTDYTLSINSVKPEDEAIYYCLQGYSTPLTFGAGTKLELK

biological target: T1, mouse MerTK overexpressed on CHO cells; assay: FACS, CHO-muMerTK OE cells, 10 ug/ml
Protocol: (§1) To determine whether recombinant anti-human MerTK antibodies of the present disclosure bind to human MerTK endogenously expressed on SK-MEL-5 cells and CHO cells overexpressing mouse MerTK (CHO-muMerTK OE cells), as compared to A375 and parental CHO cells as negative controls, the following experiments were performed. SK-MEL-5 cells, A375 cells, CHO-muMerTK OE cells, and CHO parental cells were plated at 100,000 cells/well. Anti-MerTK antibodies were added to the cells at 10 μg/ml. After 60 minutes on ice, cells were washed and then stained with PE-conjugated goat anti-human IgG antibody (Southern Biotech Cat #2040-09, Birmingham, AL) in the presence of Fc block solution on ice for 30 minutes, and then washed twice with cold FACS buffer (2% FBS in PBS). Mouse anti-human MerTK-PE conjugated (Biolegend, Clone 590H11G1E3) or anti-mouse MerTK-PE conjugated (ThermoFisher, Clone DS5MMER) antibodies were used as positive controls. Stained cells were acquired on a BD FACS Canto II cytometer and the mean fluorescence intensity (MFI) was calculated with FlowJo.

B1 was tested. Which MFI did it give?
The MFI was 14200 MFI.

How did the MFI turn out when B2 was run?
The MFI was 252 MFI.

How did the MFI turn out when B3 was run?
The MFI was 17400 MFI.

Which MFI does the source give for B4 here?
Its MFI is 13200 MFI.

B5 was tested. Which MFI did it give?
Its MFI is 11500 MFI.

Which MFI does the source give for B6 here?
Its MFI is 234 MFI.

B7 was tested. Which MFI did it give?
Its MFI is 2000 MFI.

With B8 as the binder, how does the MFI read?
The MFI was 5160 MFI.

B9 was tested. Which MFI did it give?
The MFI was 12800 MFI.

Which MFI does the source give for B10 here?
The MFI was 5800 MFI.

B11 was tested. Which MFI did it give?
The MFI was 11400 MFI.

How did the MFI turn out when B12 was run?
Its MFI is 252 MFI.

How did the MFI turn out when B13 was run?
Its MFI is 329 MFI.

How did the MFI turn out when B14 was run?
The MFI was 374 MFI.

biological target: T2, endogenous murine MerTK on bone …; assay: FACS, mouse BMDM, WT minus MerTK KO
Protocol: as §1
To confirm anti-MerTK antibody binding to endogenous murine MerTK, bone marrow-derived macrophages (BMDM) were isolated from MerTK wild type (WT) and knockout (KO) mice (The Jackson Laboratory, Cat #011122) using standard protocols. Briefly, cells isolated from the bone marrow were plated in the presence of 50 ng/ml M-CSF (R&D Systems, Cat #416-ML) for seven days to allow for differentiation into macrophages. Cell staining, FACs, and MFI were performed and calculated as described above.

How did the MFI turn out when B1 was run?
Its MFI is 5020 MFI.

For B3, which MFI is on record?
The MFI was 7370 MFI.

How did the MFI turn out when B4 was run?
Its MFI is 11800 MFI.

Which MFI does the source give for B5 here?
Its MFI is 10400 MFI.

B6 was tested. Which MFI did it give?
The MFI was 316 MFI.

Which MFI does the source give for B7 here?
The MFI was 2870 MFI.

Which MFI does the source give for B8 here?
Its MFI is 4490 MFI.

How did the MFI turn out when B9 was run?
The MFI was 8450 MFI.

How did the MFI turn out when B10 was run?
Its MFI is 757 MFI.

How did the MFI turn out when B11 was run?
The MFI was 6180 MFI.

B15 was tested. Which MFI did it give?
The MFI was 431 MFI.

For B16, which MFI is on record?
Its MFI is 466 MFI.

With B17 as the binder, how does the MFI read?
Its MFI is 2950 MFI.
